Reference: US20200283521A1 (GRANULAR THERAPEUTICS, published 2020)

Key:
hEpCAM-Fc = molecular target: T1, hEpCAM-Fc (human, UniProt P16422); test: direct ELISA on coated protein, IgG1
T1 construct: Fc fusion; member of the panel m9
T1 sequence (looked up): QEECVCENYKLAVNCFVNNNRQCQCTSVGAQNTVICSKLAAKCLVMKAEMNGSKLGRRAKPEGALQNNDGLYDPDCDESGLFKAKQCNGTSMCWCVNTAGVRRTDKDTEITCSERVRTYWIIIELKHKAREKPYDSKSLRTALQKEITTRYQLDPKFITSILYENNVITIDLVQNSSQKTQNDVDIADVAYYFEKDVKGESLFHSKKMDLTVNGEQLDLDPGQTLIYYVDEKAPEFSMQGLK

hCMET-Fc = molecular target: T2, hCMET-Fc (The natural ectodomain is cleaved by furin after residue 307 into disulfide-linked alpha and beta chains. It is given here as one continuous stretch.); test: direct ELISA on coated protein, IgG1
T2 construct: member of the panel m9
T2 chain: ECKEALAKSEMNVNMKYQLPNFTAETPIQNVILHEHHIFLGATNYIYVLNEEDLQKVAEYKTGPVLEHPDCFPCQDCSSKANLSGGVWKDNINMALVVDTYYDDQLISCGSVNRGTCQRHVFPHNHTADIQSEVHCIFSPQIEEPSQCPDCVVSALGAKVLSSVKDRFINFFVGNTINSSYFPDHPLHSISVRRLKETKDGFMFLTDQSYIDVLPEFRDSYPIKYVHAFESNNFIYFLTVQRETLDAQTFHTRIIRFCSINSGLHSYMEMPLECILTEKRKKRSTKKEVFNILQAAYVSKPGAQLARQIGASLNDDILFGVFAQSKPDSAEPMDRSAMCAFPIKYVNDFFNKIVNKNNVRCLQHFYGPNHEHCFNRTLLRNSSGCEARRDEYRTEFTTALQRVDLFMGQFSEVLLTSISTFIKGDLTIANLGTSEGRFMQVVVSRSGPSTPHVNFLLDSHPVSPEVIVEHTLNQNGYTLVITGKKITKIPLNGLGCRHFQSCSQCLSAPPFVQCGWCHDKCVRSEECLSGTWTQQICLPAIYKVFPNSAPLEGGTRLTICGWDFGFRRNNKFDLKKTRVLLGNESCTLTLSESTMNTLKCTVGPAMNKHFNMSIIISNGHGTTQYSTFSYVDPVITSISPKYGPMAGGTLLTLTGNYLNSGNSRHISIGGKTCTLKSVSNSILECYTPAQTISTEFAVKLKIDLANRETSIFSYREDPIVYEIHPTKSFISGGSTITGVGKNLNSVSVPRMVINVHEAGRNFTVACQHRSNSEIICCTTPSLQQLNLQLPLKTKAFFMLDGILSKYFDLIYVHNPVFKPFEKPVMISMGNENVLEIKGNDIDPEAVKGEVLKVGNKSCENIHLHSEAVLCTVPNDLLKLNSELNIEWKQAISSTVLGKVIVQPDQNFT

hICAM-1-Fc = molecular target: T3, hICAM-1-Fc (human, UniProt P05362); test: direct ELISA on coated protein, IgG1
T3 construct: Fc fusion; member of the panel m9

hDR3-Fc = molecular target: T4, hDR3-Fc (human, UniProt Q93038); test: direct ELISA on coated protein, IgG1
T4 construct: Fc fusion; member of the panel m9
T4 sequence (looked up): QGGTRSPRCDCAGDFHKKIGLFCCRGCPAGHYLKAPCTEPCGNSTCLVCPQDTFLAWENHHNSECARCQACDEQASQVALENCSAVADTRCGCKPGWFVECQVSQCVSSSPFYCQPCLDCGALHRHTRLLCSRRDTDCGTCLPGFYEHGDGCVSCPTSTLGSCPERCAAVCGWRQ

hCD4 = molecular target: T5, hCD4 (human, UniProt P01730); test: direct ELISA on coated protein, IgG1
T5 construct: purified recombinant protein; member of the panel m9

hDR6-Fc = molecular target: T6, hDR6-Fc (human, UniProt O75509); test: direct ELISA on coated protein, IgG1
T6 construct: Fc fusion; member of the panel m9
T6 sequence (looked up): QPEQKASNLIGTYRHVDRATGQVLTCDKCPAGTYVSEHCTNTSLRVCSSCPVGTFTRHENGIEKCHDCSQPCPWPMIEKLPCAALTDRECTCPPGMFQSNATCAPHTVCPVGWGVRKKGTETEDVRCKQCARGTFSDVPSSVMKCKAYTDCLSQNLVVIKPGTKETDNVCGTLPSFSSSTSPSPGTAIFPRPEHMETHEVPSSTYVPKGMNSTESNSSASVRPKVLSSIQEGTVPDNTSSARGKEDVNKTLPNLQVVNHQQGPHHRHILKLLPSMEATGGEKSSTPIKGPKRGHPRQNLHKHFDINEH

hBAFFR-Fc = molecular target: T7, hBAFFR-Fc (human, UniProt Q96RJ3); test: direct ELISA on coated protein, IgG1
T7 construct: Fc fusion; member of the panel m9

hVCAM-Fc = molecular target: T8, hVCAM-Fc; test: direct ELISA on coated protein, IgG1
T8 construct: member of the panel m9
T8 chain: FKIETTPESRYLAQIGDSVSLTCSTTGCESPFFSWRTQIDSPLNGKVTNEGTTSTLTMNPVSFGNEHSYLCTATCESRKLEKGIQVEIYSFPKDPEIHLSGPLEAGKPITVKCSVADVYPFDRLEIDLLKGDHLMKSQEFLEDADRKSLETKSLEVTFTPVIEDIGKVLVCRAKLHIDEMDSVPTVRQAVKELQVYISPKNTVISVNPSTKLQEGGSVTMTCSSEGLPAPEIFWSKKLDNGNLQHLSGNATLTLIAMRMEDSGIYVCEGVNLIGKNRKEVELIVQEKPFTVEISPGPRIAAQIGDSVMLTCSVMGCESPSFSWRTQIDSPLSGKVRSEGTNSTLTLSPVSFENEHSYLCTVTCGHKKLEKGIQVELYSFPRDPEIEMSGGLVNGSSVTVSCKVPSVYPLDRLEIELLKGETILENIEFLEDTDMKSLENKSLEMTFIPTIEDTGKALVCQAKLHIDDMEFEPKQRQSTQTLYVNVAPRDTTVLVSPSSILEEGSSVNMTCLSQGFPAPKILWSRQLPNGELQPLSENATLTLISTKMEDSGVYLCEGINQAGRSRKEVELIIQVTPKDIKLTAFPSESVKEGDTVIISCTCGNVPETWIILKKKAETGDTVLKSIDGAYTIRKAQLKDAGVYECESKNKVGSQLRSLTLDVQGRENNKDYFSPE

hVCAM-1 = molecular target: T9, hVCAM-1 (human, UniProt P19320); test: direct ELISA on coated protein, IgG1
T9 construct: purified recombinant protein; member of the panel m9
T9 sequence (looked up): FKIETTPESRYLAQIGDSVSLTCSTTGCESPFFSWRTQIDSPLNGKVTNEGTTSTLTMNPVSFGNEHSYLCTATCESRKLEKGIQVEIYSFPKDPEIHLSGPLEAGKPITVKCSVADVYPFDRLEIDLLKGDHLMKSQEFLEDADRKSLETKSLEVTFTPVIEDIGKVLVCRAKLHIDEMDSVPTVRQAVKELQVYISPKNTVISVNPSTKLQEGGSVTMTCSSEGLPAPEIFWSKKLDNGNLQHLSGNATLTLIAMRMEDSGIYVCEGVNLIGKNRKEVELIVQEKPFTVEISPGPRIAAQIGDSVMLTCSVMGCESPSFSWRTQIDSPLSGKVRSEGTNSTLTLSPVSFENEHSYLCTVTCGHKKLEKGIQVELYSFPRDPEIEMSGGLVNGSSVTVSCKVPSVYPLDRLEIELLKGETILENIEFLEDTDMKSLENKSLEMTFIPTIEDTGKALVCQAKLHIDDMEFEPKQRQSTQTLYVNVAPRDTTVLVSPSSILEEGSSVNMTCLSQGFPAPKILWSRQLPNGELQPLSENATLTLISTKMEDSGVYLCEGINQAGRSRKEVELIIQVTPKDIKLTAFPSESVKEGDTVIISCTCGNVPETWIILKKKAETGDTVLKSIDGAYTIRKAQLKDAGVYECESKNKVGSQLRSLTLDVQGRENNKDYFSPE

hTWEAK-Fc = molecular target: T10, hTWEAK-Fc (human, UniProt O43508); test: direct ELISA on coated protein, IgG1
T10 construct: Fc fusion; member of the panel m9
T10 sequence (looked up): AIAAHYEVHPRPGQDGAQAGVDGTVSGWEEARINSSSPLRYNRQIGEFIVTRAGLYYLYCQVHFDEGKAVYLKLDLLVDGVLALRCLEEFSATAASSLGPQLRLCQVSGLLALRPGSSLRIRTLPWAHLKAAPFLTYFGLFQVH

hOX40-Fc = molecular target: T11, hOX40-Fc; test: direct ELISA on coated protein, IgG1
T11 construct: member of the panel m9
T11 chain: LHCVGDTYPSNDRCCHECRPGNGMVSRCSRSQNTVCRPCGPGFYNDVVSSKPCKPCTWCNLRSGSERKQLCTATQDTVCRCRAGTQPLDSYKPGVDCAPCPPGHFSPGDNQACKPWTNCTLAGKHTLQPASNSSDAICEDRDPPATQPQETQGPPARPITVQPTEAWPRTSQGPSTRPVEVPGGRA

h4-1BB-Fc = molecular target: T12, h4-1BB-Fc; test: direct ELISA on coated protein, IgG1
T12 construct: member of the panel m9

hLTBR-Fc = molecular target: T13, hLTBR-Fc (human, UniProt P36941); test: direct ELISA on coated protein, IgG1
T13 construct: Fc fusion; member of the panel m9

human C-KIT-Fc [1] = molecular target: T14, human C-KIT-Fc (human, UniProt P10721 26-524); test: direct titration ELISA on coated C-KIT-Fc, IgG1 format
T14 construct: also called biotinylated human C-KIT-Fc; not shown: Fc part not described

human C-KIT-Fc [2] = molecular target: T14, human C-KIT-Fc; test: direct ELISA at 1 µg/ml
[3] = molecular target: T15, cynomolgus monkey C-KIT-Fc (cynomolgus monkey); test: direct ELISA at 1 µg/ml
T15 construct: also called cyno C-KIT-Fc

T12 sequence (chain, as listed by the source limits assumed): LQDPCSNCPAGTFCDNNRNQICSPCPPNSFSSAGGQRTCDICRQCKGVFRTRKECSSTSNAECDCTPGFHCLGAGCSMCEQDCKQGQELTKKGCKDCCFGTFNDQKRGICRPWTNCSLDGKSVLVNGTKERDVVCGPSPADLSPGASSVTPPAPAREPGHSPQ
T13 sequence (P36941 28-227 limits assumed): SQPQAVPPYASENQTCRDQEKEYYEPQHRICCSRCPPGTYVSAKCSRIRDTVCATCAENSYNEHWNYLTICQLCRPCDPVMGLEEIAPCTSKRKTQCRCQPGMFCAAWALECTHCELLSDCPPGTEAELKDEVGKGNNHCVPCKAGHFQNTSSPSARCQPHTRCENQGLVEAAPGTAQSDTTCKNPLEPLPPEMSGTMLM
T3 sequence (P05362 28-480 limits assumed): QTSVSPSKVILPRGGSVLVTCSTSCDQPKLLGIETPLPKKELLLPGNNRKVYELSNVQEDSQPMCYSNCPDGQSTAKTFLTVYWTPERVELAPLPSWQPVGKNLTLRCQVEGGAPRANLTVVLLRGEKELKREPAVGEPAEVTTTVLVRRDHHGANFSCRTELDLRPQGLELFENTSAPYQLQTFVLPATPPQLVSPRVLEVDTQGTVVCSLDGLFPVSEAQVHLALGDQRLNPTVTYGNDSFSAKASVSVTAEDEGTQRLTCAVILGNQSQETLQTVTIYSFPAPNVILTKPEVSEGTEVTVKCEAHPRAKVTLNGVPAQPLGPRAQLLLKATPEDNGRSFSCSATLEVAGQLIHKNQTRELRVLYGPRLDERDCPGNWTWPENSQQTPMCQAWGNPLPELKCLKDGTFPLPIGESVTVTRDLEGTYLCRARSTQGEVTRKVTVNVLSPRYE
T7 sequence (Q96RJ3 7-71 limits assumed): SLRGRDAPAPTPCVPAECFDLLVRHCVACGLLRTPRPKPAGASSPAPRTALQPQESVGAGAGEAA

binding result (hEpCAM-Fc): no binding (tested: 1 µg/ml)
binding result (hCMET-Fc): no binding (tested: 1 µg/ml)
binding result (hICAM-1-Fc): no binding (tested: 1 µg/ml)
binding result (hDR3-Fc): no binding (tested: 1 µg/ml)
binding result (hCD4): no binding (tested: 1 µg/ml)
binding result (hDR6-Fc): no binding (tested: 1 µg/ml)
binding result (hBAFFR-Fc): no binding (tested: 1 µg/ml)
binding result (hVCAM-Fc): no binding (tested: 1 µg/ml)
binding result (hVCAM-1): no binding (tested: 1 µg/ml)
binding result (hTWEAK-Fc): no binding (tested: 1 µg/ml)
binding result (hOX40-Fc): no binding (tested: 1 µg/ml)
binding result (h4-1BB-Fc): no binding (tested: 1 µg/ml)
binding result (hLTBR-Fc): no binding (tested: 1 µg/ml)
EC50 (read off the curve) (human C-KIT-Fc [1]): ~0.1 µg/mL
OD450 nm (human C-KIT-Fc [2]): > 1.8 OD450 nm
OD450 nm [3]: > 2 OD450 nm
B1: E-C2 (antibody, IgG1, V domains shown)
VH: QVQLVQSGAEVKKPGASVKVSCKASGYTFTDYYMNWVRQAPGQGLEWMGRIYPGSGNTYYAQKFQGRVTMTRDTSTSTVYMELSSLRSEDTAVYYCARGVYYLDYWGQGTLVTVSS
VL: DIQMTQSPSSLSASVGDRVTITCRASQGIRTNVAWLQQKPGKAPKSLIYSASYRQSGVPSRFSGSGSGTDFTLTISSLQPEDFATYYCQQYNSYPRTFGGGTKVEIK
notes: IgG1; also called C-KIT-E-C2
